Earlier results on one substance are cited in patent publication US6726924B2, “Oral liposomal delivery system” (Biozone Laboratories, Inc., priority 1997, dated 2004).

For the data set the following is noted: oral; free vs liposomes with ceramides; Regnault et al. 1996.

Usually bioavailability stands for dose-corrected exposure relative to a reference, in per cent. Take superoxide dismutase: the bioavailability was 14%.
